According to the DeepSol protein solubility set:

Test: soluble on expression in E. coli; label from the status in PepcDB or PDB records

| Sequence | soluble on expression in E. coli |
| --- | --- |
| MAHHHHHHMSAAGRLIRIRKKSKWIDRRSKRIPHNGKDVWQFGEQPSCALCHVRFRFKQDYEAHKESELHQNRLRWVETMKWWEEIGEPHHQQHAASEWEWFRQRVLPAKAAAMGLSEEDAARELRRAVMHETPRWYSRIQPPNARSEIKEPRDQRWPSSPKW | not soluble |
| MAHHHHHHMSLNAAAAADERSRKEMDRFQVERMAGQGTFGTVQLGKEKSTGMSVAIKKVIQDPRFRNRELQIMQDLAVLHHPNIVQLQSYFYTLGERDRRDIYLNVVMEYVPDTLHRCCRNYYRRQVAPPPILIKVFLFQLIRSIGCLHLPSVNVCHRDIKPHNVLVNEADGTLKLCDFGSAKKLSPSEPNVAYICSRYYRAPELIFGNQHYTTAVDIWSVGCIFAEMMLGEPIFRGDNSAGQLHEIVRVLGCPSREVLRKLNPSHTDVDLYNSKGIPWSNVFSDHSLKDAKEAYDLLSALLQYLPEERMKPYEALCHPYFDELHDPATKLPNNKDLPEDLFRFLPNEIEVMSEAQKAKLVRK | soluble |
| AKTKAAVSMEGFSWGNYINSNSFIAAPVTCFKHAPMGTCWGDISENVRVEVPNTDCSLPTKVFWIAGIVKLAGYNALLRYEGFENDSGLDFWCNICGSDIHPVGWCAASGKPLVPPRTIQHKYTNWKAFLVKRLTGAKTLPPDFSQKVSESMQYPFKPCMRVEVVDKRHLCRTRVAVVESVIGGRLRLVYEESEDRTDDFWCHMHSPLIHHIGWSRSIGHRFKRSDITKKQDGHFDTPPHLFAKVKEVDQSGEWFKEGMKLEAIDPLNLSTICVATIRKVLADGFLMIGIDGSEAADGSDWFCYHATSPSIFPVGFCEINMIELTPPRGYTKLPFKWFDYLRETGSIAAPVKLFNKDVPNHGFRVGMKLEAVDLMEPRLICVATVTRIIHRLLRIHFDGWEEEYDQWVDCESPDLYPVGWCQLTGYQLQPPASQSSR | soluble |
| MRTGKQYLESLNDGRVVWVGNEKIDNVATHPLTRDYAERVAQFYDLHHRPDLQDVLTFVDADGVRRSRQWQDPKDAAGLRVKRKYHETILREIAAGSYGRLPDAHNYTFTTYADDPEVWEKQSIGAEGRNLTQNIHNFLKLLREKDLNCPLNFVDPQTDRSSDAAQARSPNLRIVEKTDDGIIVNGVKAVGTGIAFGDYMHIGCLYRPGIPGEQVIFAAIPTNTPGVTVFCRESTVKNDPAEHPLASQGDELDSTTVFDNVFIPWEQVFHIGNPEHAKLYPQRIFDWVHYHILIRQVLRAELIVGLAILITEHIGTSKLPTVSARVAKLVAFHLAMQAHLIASEETGFHTKGGRYKPNPLIYDFGRAHFLQNQMSVMYELLDLAGRSSLMIPSEGQWDDSQSGQWFVKLNNGPKGNPRERVQIGRVIRDLYLTDWGGRQFMFENFNGTPLFAVFAATMTRDDMSAAGTYGKFASQVCGIEFGGAEPTAYAATADYAKALDKGLAPEPAAAESATS | soluble |
| MTDTLLPAAPQPLEKEGDDYFRKGCNPLAQTGRSKLQNQRAALNQQILKAVRMRTGAENLLKVATNQKVREQVRLELSFVNSDLQMLKEELEGLNISVGVYQGTEEAFTIPLIPLGLKETKEVDFSIVFKDFILEHYSEDSYLYEDDIADLMDLRQACRTPSRDEAGVELLMSYFIQLGFVESRFFPPTRHMGLLFTWYDSFTGVPVSQQTLLLEKASVLFNIGALYTQIGTRCNRQTQAGLESAVDAFQRAAGVLNYLKETFTHTPSYDMSPAMLSVLVKMMLAQAQESVFEKVCLPGIQNEFFVLVKVAQEAAKVAEAYRQLHAAMSQEPVKENIPYSWASVAYVKAYHYGALAHYFAATLLIDHQLKPGADEDHQEKCLSQLYDRMPEGMTPLATLKNAGQRVLLGKGHLHRAIGFHEESLREANLCKKLRDIQVLRDVLSAAHQRTQLKHTQHREDDDLLNLIDAPDVLPKTEREVKITFPDFSKVTVTDFFQKLGPLSVFSASKRWSPPRGIHFTVEEGDLGFTLRGNTPVQVHFLDPHCSASLAGAKEGDYIVSIQGVDCKWLTVSEVMKLLKSFGGEEVEMKVVSLLDSTSSMHNKCATYSVGMQKTYSMICLSMDDDDKADKTKKISKKLSFLSWGTSKNRQKSASTLCLPEVGLARSQNKKKLPTPFSLLNSDSSLY | soluble |
| MSLKILMIMEEAEERRSLAEKFIENIKNVECFEASMGTEALFIMKKHTPDFVFLNSKLMDGTGFEYVNLLREVNCYAKFIFMGEDIEESITAFRFQAFYYLLRPFREEDLQFLLYRMGKEGHHHHHH | soluble |
| MGSDKIHHHHHHMLLREPDPMNVKEKQMQHTDDTRDIAGVQKPEAPSGRRALITGASSGLGIEFAELLAAQKMNLVLAARRKEPMEKLAEDLRRRHGVDILVEPIDLAAPGAAARLKDSLNERAIQIDILVNNAGYGLQGEFLKTPIERTTDMIQLNITALTELSYVFGRDMAARGSGEILLIASLLAFQPVPTYAAYAATKSYVLSFGEALHDELRTQGVVVTSLCPGHTETGFDAAAGAQVSPMLRLLTMKPRPVAEAGLEALAKGKASVIAGFMNKVVAFSTRLTPRSMQRASMRKVMVP | not soluble |
| MADSLDRLYQAVLAARDLDPATSRTARLFQRGSGKMAKKLAEEAIEVVIDAVNGNREAVIRESADLLYNLTVLWASAGVRPEDVWAEMRRRENLLGIAEKLPKSRIGKPAAPHATRRPVIPQEARAVRKHR | not soluble |
| MGSDKIHHHHHHMTYYESGLLRARWASWQDARAGRTAQANARWGWIKAPGERGPILWMQSFSDADQQRLGIELAKAMAEKRRDLRMVMTFETEYPALLEQHTEGAERLGYGFGPCDHPQAVGRMLERLTPLRYLALGRAPRPRLAAALGRRKIPAVLMAADPGLQIPAPLEAVYPRDARQAGAWAGRGVTEAVQEPVDFATLFTIAQVDPNFRAMISGTDEGLLWWAQGLSAAQWAGWRRAWAASPLSRHGLLFLGGTGAPTDLPRLSAWQRAPLPAGAVVVADDDRWYPALSAGAQAVHLQKASPMLQWQVYAGSRPISVSPGVTLNAAEPLDADTILTLEEPAQILDHWQALRGDAMAARQRGDATRRIFWQERRHAGERLPEFLQRVFDW | not soluble |
| MASLNCHDKCSTTTQSDINLKDELLSSTSIECRPGNDLLESLHKEQNRWYSETKTFSDSSQHTGRGFEKYWFCYGIKCYYFVMDRKTWSGCKQTCQISSLSLLKIDNEDELKFLKLLVPSDSYWIGLSYDNKKKDWAWINNGPSKLALNTMKYNIRDGGCMLLSKTRLDNDNCDKSFICICGKRLDKFPH | soluble |
| MGSDKIHHHHHHMETWRFIDSGDRDPAYNMALDEALLNWHSEGLIPPTIRFYGWNPPTLSIGYFQKVQKEINMEMVEKHQLGFVRRPTGGRGVLHDKELTYSVIVTEEHPDMPASVTEAYRIISQGILEGFRDLGLDAYFAVPKTEEEKNALKNPRSAVCFDAPSWYELVVEGRKVAGSAQTRQKGVILQHGSIVLDIDEDKLFDLFNYPSERVRERMQRNFKNKAVPINELRDVPLSMEEVKKAFKDGFEKGLSIKLEPYTLTDAEEAEVKQIAKERYETDEWNFRK | not soluble |
| MLGMYVPDRFALKSSRVQDGMGLYTARRVRKGEKFGPFAGEKRMPEDLDENMDYRLMWEVRGSKGEVLYILDATNPRHSNWLRFVHEAPSQERKNLAAIQEGENIFYLAVDDIETDTELLIGYLDSDVEAEEEEQQALTMTKEGKVDHSKGQLAAGSKGHLGCEEDFACPQCESSFPSEEVLTEHLQSLHQKPTGEKEFKCENCGKKFPVRQALQRHFEQHRKACRGEARFVCKADSCGKRLKSKDALRRHQENVHTGDPKRKLICSVCNRKCTSVSSLQEHRKIHEIFDCQECMKKFISANQLKRHMITHSEKRPYNCEICNKSFKRLDQVGAHKVIHSEDKPYQCKLCGKGFAHRNVYKNHKKTHSEERPFQCDACKALFRTPFSLQRHLLIHNSERTFKCHHCDATFKRKDTLNVHVQVVHERHKKYRCELCNKAFVTPSVLRSHKKTHTGEKEKVCPYCGQKFASSGTLRVHIRSHTGERPYQCPYCEKGFSKNDGLKMHIRTHTREKPYQCSECSKAFSQKRGLDATKRTHTGEKPFQCDVCDLAFSLKKMLIRHKMTHNPNRPMAECHFCHKKFTRNDYLKVHMDNIHGVADS | soluble |
| MSLKTIAFDSNKYLNLQRDHILERISQFDGKLYMEFGGKMLEDYHAARVLPGYEPDNKIKLLKELKEQVEIVIAINANNIEHSKARGDLGISYDQEVFRLIDKFNTLDIYVGSVVITQYNNQPAADAFRKQLEKNGIASYLHYPIKGYPTDINHIISSEGMGKNDYIKTSRNLIVVTAPGPGSGKLATCMSQMYHDQINGVKSGYAKFETFPVWNLPLHHPVNLAYEAATADLDDVNMIDPFHLETYGKTAVNYNRDIEVFPVLNRTFERILSKSPYASPTDMGVNMVGFSIVNEEAAIEASKQEIIRRYYQTLVDFKAERVTESAVKKIELLMNDIGVTPDDRHVTVAAHQKAEQTGQPALALQLPNGQIVTGKTSGLFGPTAAVIINAIKTLAKIDKTTHLIEPEYVKPIQGLKVNHLGSHNPRLHSNEILIALAITAMTSEEANLAMKELGNLKGSEAHSTVILTEEDKNVLRKLGVNITFDPVYQHHKLYRKEGHHHHHH | soluble |
| MGSDKIHHHHHHMIKRAVEIVRQRGVGVLIKKIPPYIYQQVWPYLPSAGYTYKNGIKSCERGRVLDQFLPKYITQYATHQPSYESQYIEAIRRHVTEGQDVVLVGGGEGISTVVAANQVQRTGEVTVFEGAAEEARKSQVVVEINEVSDRTTVHHTIVSEDVSLRSAASGAEVLPSAELPSCDVLAIDADGAEISILDGIVNHPAVLIVEHHAVADTSGLALEYQPDRVRDLITNLGYDIVDEMSDPAGAGGGRFEERIYVGKRLAVEPSDLM | not soluble |
| SNAMKEKVVIITGGSSGMGKGMATRFAKEGARVVITGRTKEKLEEAKLEIEQFPGQILTVQMDVRNTDDIQKMIEQIDEKFGRIDILINNAAGNFICPAEDLSVNGWNSVINIVLNGTFYCSQAIGKYWIEKGIKGNIINMVATYAWDAGPGVIHSAAAKAGVLAMTKTLAVEWGRKYGIRVNAIAPGPIERTGGADKLWISEEMAKRTIQSVPLGRLGTPEEIAGLAYYLCSDEAAYINGTCMTMDGGQHLHQYPF | soluble |
| QQQHKVLKTVKVTEQLKHCSEILKEMLAKKHLPYAWPFYNPVDADALGLHNYYDVVKNPMDLGTIKGKMDNQEYKDAYEFAADVRLMFMNCYKYNPPDHEVVAMARTLQDVFELHFAKIPDEPIES | soluble |
| MGSDKIHHHHHHMDKATTPPEFERRRARAAQYLRMSTERQIYSIDNQRDAIRNYAEVMGYDIVATYEDPGRSGLSILGRPGLKRLIEDIESRRADFETVVVYDVSRWGRFQNTDESASYEYRCQRAGVRIEFCAELFVNDGSIGSDVLKAIKRSMAAEYSRMLSNRVFAGQSRIVKLGFSGGGPAGYGLRRLLVDGSGNPKAILHRDQRKGLASDRVVLVPGPENEVSTVRWIFNQFVKKGKTAVEIASALNARGLVTEFGRPWTGACVGTILASEKYVGNIVWNRISHRLLQNRLRNPPSAFVRADNVIEPLVTRALFDRAQAIRRARTYLRPDEELLADLTKLLKERGRLSSPIIDAAPGCHSASIYAHRFGSMNAAYQLIGYDGSANYRKLDIRRRLIQIRQQTIENLMSDIEGVGGSALYDPQTKIMRVNDEFSVAIWTAQYRMNVTGFPRWPFWKRGLIGPEVTILIRMESDNQTVRDFLIAPAHEAQSALHMLKADNGVRLDAFLFASLDPVVEMARREPMPANI | not soluble |
| MGSDKIHHHHHHLTYNLLEGSGWMLKIYQVDSFTAVPFGGNPAGVCLLDEEIDERLYPRIASEMNLSETAFVRPGDEKNTYGLRWFTPKVEVKMCGHATLATAWIHFTELGVKGEISYETLSGKLGVRYVDGKIEMNFPSDNPYRVRIDEMLGRITGVEGECYYSSLTEKLLYIISSKSKLENLSFDFSLLETCDFGYTVKGLIVSSPGDEKFDFYSRYFAPWVGIDEDPVTGSAHTVLGPFWSEKLGRKNLRACQLSSRRGELDLELLPNSRILILGKAVTVIRGTISI | not soluble |
